IntAct's records for PubMed 24591568

B1: Rab11 family-interacting protein 5 (Homo sapiens), Q9BXF6 (parent)
chain: MALVRGAEPAAGPSRWLPTHVQVTVLRARGLRGKSSGAGSTSDAYTVIQVGREKYSTSVVEKTHGCPEWREECSFELPPGALDGLLRAQEADAGPAPWAASSAAACELVLTTMHRSLIGVDKFLGQATVALDEVFGAGRAQHTQWYKLHSKPGKKEKERGEIEVTIQFTRNNLSASMFDLSMKDKPRSPFSKIRDKMKGKKKYDLESASAILPSSAIEDPDLGSLGKMGKAKGFFLRNKLRKSSLTQSNTSLGSDSTLSSASGSLAYQGPGAELLTRSPSRSSWLSTEGGRDSAQSPKLFTHKRTYSDEANQMRVAPPRALLDLQGHLDAASRSSLCVNGSHIYNEEPQGPVRHRSSISGSLPSSGSLQAVSSRFSEEGPRSTDDTWPRGSRSNSSSEAVLGQEELSAQAKVLAPGASHPGEEEGARLPEGKPVQVATPIVASSEAVAEKEGARKEERKPRMGLFHHHHQGLSRSELGRRSSLGEKGGPILGASPHHSSSGEEKAKSSWFGLREAKDPTQKPSPHPVKPLSAAPVEGSPDRKQSRSSLSIALSSGLEKLKTVTSGSIQPVTQAPQAGQMVDTKRLKDSAVLDQSAKYYHLTHDELISLLLQRERELSQRDEHVQELESYIDRLLVRIMETSPTLLQIPPGPPK
partner: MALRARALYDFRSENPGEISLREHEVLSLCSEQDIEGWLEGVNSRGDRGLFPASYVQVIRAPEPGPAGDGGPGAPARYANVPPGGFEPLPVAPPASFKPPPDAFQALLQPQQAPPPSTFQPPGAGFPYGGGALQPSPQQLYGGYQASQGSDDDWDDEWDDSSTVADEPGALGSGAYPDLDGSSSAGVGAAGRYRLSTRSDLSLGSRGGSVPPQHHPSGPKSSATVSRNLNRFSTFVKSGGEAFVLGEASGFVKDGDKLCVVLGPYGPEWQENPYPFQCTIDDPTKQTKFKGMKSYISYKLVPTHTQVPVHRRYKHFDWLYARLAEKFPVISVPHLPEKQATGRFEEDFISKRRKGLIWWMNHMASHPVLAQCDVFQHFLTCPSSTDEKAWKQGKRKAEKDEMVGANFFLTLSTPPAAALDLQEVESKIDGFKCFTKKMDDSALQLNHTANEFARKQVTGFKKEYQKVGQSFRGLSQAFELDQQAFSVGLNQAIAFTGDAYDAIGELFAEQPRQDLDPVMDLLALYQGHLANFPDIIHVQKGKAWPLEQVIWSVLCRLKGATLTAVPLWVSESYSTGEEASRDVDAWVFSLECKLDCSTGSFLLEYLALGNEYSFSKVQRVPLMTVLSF
B2: Rab11 family-interacting protein 5 (Homo sapiens), Q9BXF6 (parent)
chain: B1 chain

Variants of: B1
Settings: with snx18_human SNX18, Q96RF0

Variant	effect of a mutation on the interaction
T276D	decreasing interaction

Variants of: B1
Settings: with snx18_human SNX18, Q96RF0
Remark: another data set of the same source

Variant	effect of a mutation on the interaction
T276A	increasing interaction

Variants of: B2
Settings: with kif3a_human KIF3A

Variant	effect of a mutation on the interaction
T276D	increasing interaction

Variants of: B2
Settings: with kif3a_human KIF3A
Remark: another data set of the same source

Variant	effect of a mutation on the interaction
T276A	increasing interaction
